According to US20130035256A1, “Chimeric Polypeptides Useful in Proximal and Dynamic High-Throughput Screening Methods” (ADDEX PHARMA SA, priority 2010, published 2013):

How the values were obtained:
[1] = target: T1, GLP1R-L-G (human GLP-1 receptor) (Homo sapiens, UniProt P43220); assay: BRET assay, HEK cells transiently co-transfected with GLP1R-L-G and a Gγ construct; format: cell-based; settings: cells coexpressing GLP1R-L-G and the Gγ construct, exposed to GLP-1
T1 construct: ID; expressed in transfected cells; host or cells: HEK cells, transient

[2] = target: T2, M4R-GLG2 (human muscarinic acetylcholine receptor M4) (Homo sapiens, UniProt P08173); assay: BRET assay, HEK cells transiently co-transfected with M4R-GLG2 and a Gγ construct; format: cell-based; parameters: key to the marks not given beside the values; settings: cells coexpressing M4R-GLG2 and the Gγ construct, exposed to ACh
T2 construct: ID; NOs; expressed in transfected cells; host or cells: HEK cells, transient

[3] = target: T3, GIPR-L-G (human GIP receptor) (Homo sapiens, UniProt P48546); assay: BRET assay, HEK cells transiently co-transfected with GIPR-L-G and a Gγ construct; format: cell-based; settings: cells coexpressing GIPR-L-G and the Gγ construct, exposed to GIP
T3 construct: ID; NOs; expressed in transfected cells; host or cells: HEK cells, transient

[4] = target: T4, A2AR-RGL (human A2A receptor) (Homo sapiens, UniProt P29274); assay: BRET assay, HEK cells transiently co-transfected with A2AR-RGL and a Gγ construct; format: cell-based; parameters: key to the marks not given beside the values; settings: cells coexpressing A2AR-RGL and the Gγ construct, exposed to Adenosine
T4 construct: ID; NOs; expressed in transfected cells; host or cells: HEK cells, transient

[5] = target: T5, GCGR-RLG (glucagon receptor) (Homo sapiens, UniProt P47871); assay: BRET assay, HEK cells transiently co-transfected with GCGR-RLG and a Gγ construct; format: cell-based; parameters: key to the marks not given beside the values; settings: cells coexpressing GCGR-RLG and the Gγ construct, exposed to Glucagon
T5 construct: 39; GCGR; RLG; Gαs; 94, 95; FP-Gγ9; 3, 4; 15; expressed in transfected cells; host or cells: HEK cells, transient

[6] = target: T6, GHSR-RLG (hGHSR) (Homo sapiens, UniProt Q92847); assay: BRET assay, HEK cells transiently co-transfected with GHSR-RLG and a Gγ construct; format: cell-based; parameters: key to the marks not given beside the values; settings: cells coexpressing GHSR-RLG and the Gγ construct, exposed to Ghrelin
T6 construct: 37; hGHSR; RLG; Gαq; 90, 91; FP-Gγ9; 3, 4; 13; expressed in transfected cells; host or cells: HEK cells, transient

[7] = target: T7, M1R-GLG3 (human M1 receptor) (Homo sapiens, UniProt P11229); assay: BRET assay, HEK cells transiently co-transfected with M1R-GLG3 and a Gγ construct; format: cell-based; parameters: key to the marks not given beside the values; settings: cells coexpressing M1R-GLG3 and the Gγ construct, exposed to Acetylcholin
T7 construct: 35; hM1R; RGLG-3; Gαq; 86, 87; FP-Gγ9; 3, 4; 11A, 11B; expressed in transfected cells; host or cells: HEK cells, transient
T7 sequence (P11229 with tags, fused parts or gaps): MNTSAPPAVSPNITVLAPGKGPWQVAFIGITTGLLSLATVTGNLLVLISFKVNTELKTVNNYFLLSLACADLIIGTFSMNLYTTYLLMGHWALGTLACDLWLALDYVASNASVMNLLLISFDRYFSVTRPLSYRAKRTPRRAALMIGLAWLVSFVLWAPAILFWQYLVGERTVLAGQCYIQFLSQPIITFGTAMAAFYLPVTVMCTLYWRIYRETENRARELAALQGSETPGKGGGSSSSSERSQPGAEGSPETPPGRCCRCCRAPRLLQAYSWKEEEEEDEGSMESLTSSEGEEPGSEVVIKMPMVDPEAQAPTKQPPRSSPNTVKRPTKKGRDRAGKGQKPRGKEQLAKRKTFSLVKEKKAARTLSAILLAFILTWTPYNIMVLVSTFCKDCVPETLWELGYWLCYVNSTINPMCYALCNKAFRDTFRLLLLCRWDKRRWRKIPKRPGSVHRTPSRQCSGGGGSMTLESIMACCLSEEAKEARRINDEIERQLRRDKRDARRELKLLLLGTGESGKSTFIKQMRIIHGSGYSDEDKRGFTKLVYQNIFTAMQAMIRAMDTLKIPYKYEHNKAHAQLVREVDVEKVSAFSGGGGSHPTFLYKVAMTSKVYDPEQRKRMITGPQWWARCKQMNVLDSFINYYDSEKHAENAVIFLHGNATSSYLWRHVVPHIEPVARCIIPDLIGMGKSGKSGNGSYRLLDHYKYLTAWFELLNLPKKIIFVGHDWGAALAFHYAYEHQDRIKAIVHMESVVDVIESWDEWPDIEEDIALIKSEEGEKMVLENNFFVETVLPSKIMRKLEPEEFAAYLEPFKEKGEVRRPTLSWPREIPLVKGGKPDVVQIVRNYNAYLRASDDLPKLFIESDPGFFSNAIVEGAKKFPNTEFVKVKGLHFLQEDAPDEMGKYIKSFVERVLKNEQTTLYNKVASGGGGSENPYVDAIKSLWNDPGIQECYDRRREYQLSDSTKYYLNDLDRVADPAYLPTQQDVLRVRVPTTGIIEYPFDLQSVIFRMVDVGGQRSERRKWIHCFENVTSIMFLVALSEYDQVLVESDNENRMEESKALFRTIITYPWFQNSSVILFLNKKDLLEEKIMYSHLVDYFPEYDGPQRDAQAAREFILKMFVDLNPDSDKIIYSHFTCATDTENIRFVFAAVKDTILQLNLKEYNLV

[8] = target: T8, chimeric M4R (RGLG-2) (Homo sapiens, UniProt P08173); assay: BRET assay of the invention, cells co-expressing chimeric M4R (RGLG-2) and FP-Gγ9; format: cell-based; settings: cells incubated over night with 100 ng/ml PTX
T8 construct: ID; NOs; expressed in transfected cells
Method: The same cells as described for FIG. 10 A were used. […] The decrease of the signal below baseline in the PTX-treated condition confirms a constitutive activity that has been described for the M4R. […]
A typical experiment has the following sequence.
The assay of the present invention was compared with a state of the art calcium based assay. […] In calcium-based assay, a calcium flux is measured in cells co-expressing recombinant M4R and modified Gαq. In the assay in accordance with the present invention, BRET in measured in cells co-expressing a chimeric M4R according to RGLG-2 (construct and cell-line from FIG. 2C, Table 6) and FP-Gγ9 (as described in FIG. 10A). The data represent mean values and they are normalized to the maximal effect of the orthosteric agonist after the subtraction of the basal values.

[9] = target: T9, M4R RGLG-2 with Gαo C351S (Homo sapiens, UniProt P08173+P09471, C351S); assay: BRET assay, chimeric M4R with PTX-insensitive mutant (C351S) of Gαo in the RGLG-2 fusion construct; format: cell-based; settings: same conditions as FIG. 10B
T9 construct: ID; NOs; expressed in transfected cells
Method: Cells lines were prepared as described above (Examples 13-34).

[10] = target: human M1 receptor (M1R) RGLG-3 (Homo sapiens, UniProt P11229)
Method: Cells co-express a construct comprising a human M1 receptor (M1R) fused to a split Gαq protein harboring a luminescent protein (construct RGLG-3, FIG. 2C, Table 6) and the FP-Gγ9 construct (as above).
5 or 10 minutes after the addition of coelenterazine H to the cells, the read plate is placed in the FLIPR tetra and the measurement begins.
A second plate is a compound plate, containing a mix of an agonist at its EC20 or EC80 and candidate agents to be tested if the protocol run on the FLIPR tetra is a one-addition (or co-addition) protocol (as in FIGS. 3A, 3B, 4, 5A, 6, 7B, 7C, 10B, 10C, 11B, 13, 14, 19 and 20). Alternatively, a two-addition protocol can be run on the FLIPR tetra, containing two compound plates, of which the first one usually contains different candidate agents and the second one an agonist at its EC20 or EC80 (as in FIGS. 5B, 5C, 7A, 9, 10A, 11A, 12, 15, 16, and 18). […]
The camera is adjusted in such a way that the gain is set to a maximum of 28,000× and the shutters are opened 100%. […] The read interval (emission filter 1, emission filter 2) is adjusted to the minimal value that results from the addition of the two exposure times (=2×0.1 to 3 seconds) plus the time needed to move the filters from position 1 to position 2 (0.3 sec), resulting in a maximal read frequency of 0.5 seconds (2 Hz). […]

[11] = target: T10, hM1R fused to split Gαq harbouring a luminescent protein (type RGLG-3)
T10 chain: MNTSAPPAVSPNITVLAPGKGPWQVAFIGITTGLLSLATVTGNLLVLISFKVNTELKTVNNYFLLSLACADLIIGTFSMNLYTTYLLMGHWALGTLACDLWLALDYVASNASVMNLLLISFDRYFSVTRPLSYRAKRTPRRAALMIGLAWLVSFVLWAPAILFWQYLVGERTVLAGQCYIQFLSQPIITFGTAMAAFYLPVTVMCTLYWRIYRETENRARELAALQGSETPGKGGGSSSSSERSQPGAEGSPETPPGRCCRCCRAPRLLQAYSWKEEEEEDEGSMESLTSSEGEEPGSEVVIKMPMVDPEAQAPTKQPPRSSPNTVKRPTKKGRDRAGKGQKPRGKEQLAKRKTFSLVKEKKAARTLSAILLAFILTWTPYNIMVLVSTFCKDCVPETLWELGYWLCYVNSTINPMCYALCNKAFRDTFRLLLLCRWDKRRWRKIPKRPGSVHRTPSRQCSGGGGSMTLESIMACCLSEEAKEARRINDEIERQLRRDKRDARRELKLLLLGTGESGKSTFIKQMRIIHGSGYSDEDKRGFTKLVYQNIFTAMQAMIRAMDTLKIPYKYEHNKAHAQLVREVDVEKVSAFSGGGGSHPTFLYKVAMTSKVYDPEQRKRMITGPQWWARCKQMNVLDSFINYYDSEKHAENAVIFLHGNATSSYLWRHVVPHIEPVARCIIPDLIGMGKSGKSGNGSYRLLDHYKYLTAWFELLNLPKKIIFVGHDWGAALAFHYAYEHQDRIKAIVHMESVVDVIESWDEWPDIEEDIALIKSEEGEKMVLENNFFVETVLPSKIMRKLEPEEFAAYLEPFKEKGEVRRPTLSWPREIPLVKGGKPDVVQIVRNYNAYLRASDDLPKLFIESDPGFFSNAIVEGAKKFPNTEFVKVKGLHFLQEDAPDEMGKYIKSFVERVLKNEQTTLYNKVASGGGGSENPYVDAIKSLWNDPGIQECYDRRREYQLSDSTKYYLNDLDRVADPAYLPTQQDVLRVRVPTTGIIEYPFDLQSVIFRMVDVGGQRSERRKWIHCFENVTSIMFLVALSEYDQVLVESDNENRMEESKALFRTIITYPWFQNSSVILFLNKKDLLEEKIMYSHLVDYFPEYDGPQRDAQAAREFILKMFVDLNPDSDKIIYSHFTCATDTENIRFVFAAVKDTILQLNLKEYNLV

[12] = target: hM4-R RGLG-2 fusion construct with the PTX-insensitive mutant (C351S) of Gαo
[13] = target: T11, hM4-R-Gαo^1-91-Luciferase-Gαo^92-354 fusion protein (type RGLG-2)
T11 chain: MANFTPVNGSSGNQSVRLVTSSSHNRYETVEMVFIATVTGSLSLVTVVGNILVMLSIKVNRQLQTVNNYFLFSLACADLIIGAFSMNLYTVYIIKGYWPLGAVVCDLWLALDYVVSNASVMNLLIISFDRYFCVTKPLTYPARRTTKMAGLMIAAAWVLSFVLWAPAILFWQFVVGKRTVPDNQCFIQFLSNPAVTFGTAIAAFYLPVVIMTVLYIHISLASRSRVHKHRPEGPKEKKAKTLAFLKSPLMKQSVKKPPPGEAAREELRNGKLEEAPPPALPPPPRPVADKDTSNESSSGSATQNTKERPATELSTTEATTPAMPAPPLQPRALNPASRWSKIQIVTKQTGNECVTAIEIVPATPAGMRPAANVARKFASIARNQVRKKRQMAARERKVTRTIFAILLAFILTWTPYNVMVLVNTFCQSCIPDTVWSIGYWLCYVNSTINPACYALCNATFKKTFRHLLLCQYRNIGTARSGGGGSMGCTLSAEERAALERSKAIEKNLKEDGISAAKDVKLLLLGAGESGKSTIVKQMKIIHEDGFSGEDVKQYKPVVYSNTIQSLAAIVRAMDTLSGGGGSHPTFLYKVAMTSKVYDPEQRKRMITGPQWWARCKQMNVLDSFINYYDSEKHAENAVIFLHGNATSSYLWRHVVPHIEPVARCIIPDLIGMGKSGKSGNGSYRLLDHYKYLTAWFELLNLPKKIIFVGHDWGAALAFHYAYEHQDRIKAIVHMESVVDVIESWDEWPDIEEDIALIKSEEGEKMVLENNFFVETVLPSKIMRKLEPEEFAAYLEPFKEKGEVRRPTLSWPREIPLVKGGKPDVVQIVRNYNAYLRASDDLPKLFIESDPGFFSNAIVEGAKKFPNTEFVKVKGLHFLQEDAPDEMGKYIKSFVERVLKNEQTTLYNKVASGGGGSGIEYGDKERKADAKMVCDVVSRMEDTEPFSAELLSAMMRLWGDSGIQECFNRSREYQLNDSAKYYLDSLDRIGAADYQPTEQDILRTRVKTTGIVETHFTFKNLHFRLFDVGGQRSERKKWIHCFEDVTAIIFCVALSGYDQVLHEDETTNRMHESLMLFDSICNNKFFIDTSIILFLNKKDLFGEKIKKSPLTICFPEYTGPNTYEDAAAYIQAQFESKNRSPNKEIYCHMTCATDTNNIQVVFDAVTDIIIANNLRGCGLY

T3 sequence (P48546 with tags, fused parts or gaps): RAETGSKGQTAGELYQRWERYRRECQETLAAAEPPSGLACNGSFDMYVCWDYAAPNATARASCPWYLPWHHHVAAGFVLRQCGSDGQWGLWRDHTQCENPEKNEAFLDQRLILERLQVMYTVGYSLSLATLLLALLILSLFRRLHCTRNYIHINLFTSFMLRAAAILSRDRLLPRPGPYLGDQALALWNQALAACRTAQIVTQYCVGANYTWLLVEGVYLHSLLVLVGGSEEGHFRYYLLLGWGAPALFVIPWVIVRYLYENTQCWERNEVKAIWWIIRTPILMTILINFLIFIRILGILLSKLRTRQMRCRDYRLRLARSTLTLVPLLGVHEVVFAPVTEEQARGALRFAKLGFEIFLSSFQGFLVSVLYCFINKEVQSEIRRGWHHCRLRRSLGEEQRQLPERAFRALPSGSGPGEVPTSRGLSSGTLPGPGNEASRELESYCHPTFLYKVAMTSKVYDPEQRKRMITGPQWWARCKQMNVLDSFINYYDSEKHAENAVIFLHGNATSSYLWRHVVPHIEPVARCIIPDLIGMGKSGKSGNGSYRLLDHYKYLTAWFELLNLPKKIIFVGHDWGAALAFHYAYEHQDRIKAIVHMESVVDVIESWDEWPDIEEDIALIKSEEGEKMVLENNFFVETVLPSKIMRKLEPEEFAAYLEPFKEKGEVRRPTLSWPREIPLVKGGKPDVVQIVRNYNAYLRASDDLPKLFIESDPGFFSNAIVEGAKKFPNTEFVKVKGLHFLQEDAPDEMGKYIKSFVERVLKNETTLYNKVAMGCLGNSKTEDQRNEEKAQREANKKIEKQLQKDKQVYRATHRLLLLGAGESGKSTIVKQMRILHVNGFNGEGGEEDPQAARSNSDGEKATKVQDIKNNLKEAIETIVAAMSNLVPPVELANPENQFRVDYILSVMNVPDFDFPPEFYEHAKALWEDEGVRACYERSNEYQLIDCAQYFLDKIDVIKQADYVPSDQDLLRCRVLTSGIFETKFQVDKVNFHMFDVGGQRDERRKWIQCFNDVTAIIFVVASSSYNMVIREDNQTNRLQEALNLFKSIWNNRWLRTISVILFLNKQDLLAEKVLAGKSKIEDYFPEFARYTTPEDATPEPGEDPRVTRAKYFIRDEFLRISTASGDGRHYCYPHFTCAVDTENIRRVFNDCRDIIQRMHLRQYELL
T6 sequence (Q92847 with tags, fused parts or gaps): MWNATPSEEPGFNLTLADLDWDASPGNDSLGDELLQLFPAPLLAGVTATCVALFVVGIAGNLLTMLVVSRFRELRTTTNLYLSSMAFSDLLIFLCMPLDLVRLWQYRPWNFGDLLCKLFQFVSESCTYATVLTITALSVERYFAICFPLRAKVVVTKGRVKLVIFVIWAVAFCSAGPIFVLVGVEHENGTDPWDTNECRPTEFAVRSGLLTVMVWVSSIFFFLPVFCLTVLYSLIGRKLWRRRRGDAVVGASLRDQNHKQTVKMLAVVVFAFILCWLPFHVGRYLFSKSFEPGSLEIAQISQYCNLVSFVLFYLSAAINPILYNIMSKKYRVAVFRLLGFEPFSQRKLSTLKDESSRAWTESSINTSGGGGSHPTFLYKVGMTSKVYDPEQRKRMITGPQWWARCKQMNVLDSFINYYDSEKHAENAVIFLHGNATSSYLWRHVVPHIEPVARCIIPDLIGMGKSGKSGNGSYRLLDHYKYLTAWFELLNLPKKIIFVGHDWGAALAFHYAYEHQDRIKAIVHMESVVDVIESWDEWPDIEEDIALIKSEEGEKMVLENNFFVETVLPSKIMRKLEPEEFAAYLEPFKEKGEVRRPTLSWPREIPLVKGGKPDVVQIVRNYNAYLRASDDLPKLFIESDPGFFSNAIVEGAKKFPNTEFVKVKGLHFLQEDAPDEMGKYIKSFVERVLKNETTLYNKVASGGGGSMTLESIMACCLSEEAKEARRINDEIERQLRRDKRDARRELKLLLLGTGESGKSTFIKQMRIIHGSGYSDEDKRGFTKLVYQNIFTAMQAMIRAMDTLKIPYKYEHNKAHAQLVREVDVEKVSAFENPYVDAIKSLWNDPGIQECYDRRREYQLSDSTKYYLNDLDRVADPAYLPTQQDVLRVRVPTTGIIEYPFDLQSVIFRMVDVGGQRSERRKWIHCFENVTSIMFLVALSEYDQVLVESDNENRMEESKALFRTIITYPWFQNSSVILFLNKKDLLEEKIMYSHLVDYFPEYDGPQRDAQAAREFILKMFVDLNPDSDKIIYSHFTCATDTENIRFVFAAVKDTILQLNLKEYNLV
T9 sequence (P08173+P09471 fused P09471:C351S): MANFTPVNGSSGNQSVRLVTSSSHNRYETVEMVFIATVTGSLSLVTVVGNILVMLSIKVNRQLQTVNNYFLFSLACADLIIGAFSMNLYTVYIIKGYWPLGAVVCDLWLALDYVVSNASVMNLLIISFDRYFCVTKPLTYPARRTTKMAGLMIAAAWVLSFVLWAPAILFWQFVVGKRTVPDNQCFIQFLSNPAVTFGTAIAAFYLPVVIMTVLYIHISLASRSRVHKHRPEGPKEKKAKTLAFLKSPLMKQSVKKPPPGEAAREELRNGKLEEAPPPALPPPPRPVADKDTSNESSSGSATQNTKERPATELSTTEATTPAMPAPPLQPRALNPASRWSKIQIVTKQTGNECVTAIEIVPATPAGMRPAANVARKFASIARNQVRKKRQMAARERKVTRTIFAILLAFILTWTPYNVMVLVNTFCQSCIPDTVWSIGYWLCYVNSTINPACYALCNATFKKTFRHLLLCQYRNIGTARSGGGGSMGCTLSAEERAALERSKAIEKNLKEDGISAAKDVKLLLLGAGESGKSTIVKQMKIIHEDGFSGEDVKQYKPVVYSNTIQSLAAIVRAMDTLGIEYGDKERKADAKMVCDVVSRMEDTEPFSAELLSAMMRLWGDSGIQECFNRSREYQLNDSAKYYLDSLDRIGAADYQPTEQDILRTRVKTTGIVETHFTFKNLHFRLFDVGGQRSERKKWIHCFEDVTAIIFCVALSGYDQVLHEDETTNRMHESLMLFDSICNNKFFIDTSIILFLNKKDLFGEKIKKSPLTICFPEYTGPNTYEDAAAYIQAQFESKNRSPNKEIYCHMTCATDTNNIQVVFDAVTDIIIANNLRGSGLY
T4 sequence (P29274 with tags, fused parts or gaps): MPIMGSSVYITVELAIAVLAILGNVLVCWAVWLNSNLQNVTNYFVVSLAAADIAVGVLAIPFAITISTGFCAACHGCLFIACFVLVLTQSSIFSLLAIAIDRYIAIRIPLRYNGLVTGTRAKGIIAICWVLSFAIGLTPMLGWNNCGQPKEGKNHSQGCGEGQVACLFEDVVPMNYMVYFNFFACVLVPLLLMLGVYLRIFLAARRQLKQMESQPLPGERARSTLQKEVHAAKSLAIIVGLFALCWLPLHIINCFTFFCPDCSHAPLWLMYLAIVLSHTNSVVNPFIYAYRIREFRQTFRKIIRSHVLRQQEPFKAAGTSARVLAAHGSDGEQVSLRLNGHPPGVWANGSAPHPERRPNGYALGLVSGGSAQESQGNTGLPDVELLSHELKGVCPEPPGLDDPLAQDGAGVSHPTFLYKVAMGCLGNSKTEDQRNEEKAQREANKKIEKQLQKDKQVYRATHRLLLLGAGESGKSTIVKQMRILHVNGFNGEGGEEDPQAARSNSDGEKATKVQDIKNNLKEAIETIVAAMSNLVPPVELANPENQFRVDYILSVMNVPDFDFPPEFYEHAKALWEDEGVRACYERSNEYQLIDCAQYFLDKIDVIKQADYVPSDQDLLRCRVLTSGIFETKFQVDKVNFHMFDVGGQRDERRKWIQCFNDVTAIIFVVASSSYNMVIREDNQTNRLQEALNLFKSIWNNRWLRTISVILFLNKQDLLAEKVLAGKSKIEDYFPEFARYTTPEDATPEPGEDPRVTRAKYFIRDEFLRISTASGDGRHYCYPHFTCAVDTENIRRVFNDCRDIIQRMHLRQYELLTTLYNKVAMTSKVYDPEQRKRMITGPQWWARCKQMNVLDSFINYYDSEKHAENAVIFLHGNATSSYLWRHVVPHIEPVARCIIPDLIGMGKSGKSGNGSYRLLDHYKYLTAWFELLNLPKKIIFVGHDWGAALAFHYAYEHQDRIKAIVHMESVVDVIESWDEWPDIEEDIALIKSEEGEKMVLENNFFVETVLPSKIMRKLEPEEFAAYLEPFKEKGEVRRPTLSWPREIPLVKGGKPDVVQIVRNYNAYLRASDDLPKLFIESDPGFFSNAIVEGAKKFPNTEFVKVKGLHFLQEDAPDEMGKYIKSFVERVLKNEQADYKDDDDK

FP-Gγ9: fusion protein of yellow fluorescent protein YPet and human G-protein gamma9, SEQ. ID. NOs. 3, 4
HTS compat. [1]: ++
HTS compat. [2]: ++
HTS compat. [3]: ++
HTS compat. [4]: ++
HTS compat. [5]: ++
HTS compat. [6]: ++
HTS compat. [7]: ++

PTX
effect on BRET signal changes in response to Ach [8]: effectively blocks the BRET signal changes
effect on BRET signal changes in response to Ach, C351S Gαo mutant [9]: rescued by the C351S substitution
effect on BRET signal changes in response to Ach [10]: no effect on the BRET signal changes

B1: Bordetella pertussis toxin (protein)
chain: DDPPATVYRYDSRPPEDVFQNGFTAWGNNDNVLDHLTGRSCQVGSSNSAFVSTSSSRRYTEVYLEHRMQEAVEAERAGRGTGHFIGYIYEVRADNNFYGAASSYFEYVDTYGDNAGRILAGALATYQSEYLAHRRIPPENIRRVTRVYHNGITGETTTTEYSNARYVSQQTRANPNPYTSRRSVASIVGTLVRMAPVIGACMARQAESSEAMAAWSERAGEAMVLVYYESIAYSF
BRET signal change in response to acetylcholine after overnight incubation with PTX [11]: shows no effect on the BRET signal changes obtained in response to Ach
BRET signal change in response to acetylcholine after overnight incubation with PTX [12]: The Gαo-inhibiting effects of PTX are rescued by the C351S substitution
BRET signal change in response to acetylcholine after overnight incubation with 100 ng/ml PTX [13]: PTX effectively blocks the BRET signal changes compared to the non-PTX treated condition
